What was measured:
[1] = biological target: T1, native human La protein of HeLa total cell extract (Homo sapiens (HeLa, endogenous), UniProt P05455); test: co-IP; HeLa total extract (50 nM Tris/HCl pH 8.0, 150 mM NaCl, 1% IGEPAL CA-630) mixed with 2 µg purified ab and Protein G MicroBeads, on ice 30 min; La detected by blot with anti-La mab 5B9; settings: one partner purified
T1 construct: La protein (La/SS-B), human, endogenous in HeLa cells; also called native La protein; source: endogenous, HeLa total extract

[2] = biological target: T2, recombinant human La protein (Homo sapiens, UniProt P05455); test: far-Western, overlay or dot blot; SDS-PAGE/immunoblotting under denaturing conditions: 2 µg rh-La or TCM-La on nitrocellulose, IgG4 ab constructs at 1.5 µg/mL in Blocking Solution, detected with anti-human IgG4-HRP; settings: both partners purified
T2 construct: La protein (La/SS-B, Sjögren's syndrome associated antigen B), human; It calls wildtype La an undefined mixture of oxidized and reduced protein; also called rh-La; wildtype La protein; source: bacteria lysates, purified (Ni-NTA)
T2 sequence (P05455 whole entry): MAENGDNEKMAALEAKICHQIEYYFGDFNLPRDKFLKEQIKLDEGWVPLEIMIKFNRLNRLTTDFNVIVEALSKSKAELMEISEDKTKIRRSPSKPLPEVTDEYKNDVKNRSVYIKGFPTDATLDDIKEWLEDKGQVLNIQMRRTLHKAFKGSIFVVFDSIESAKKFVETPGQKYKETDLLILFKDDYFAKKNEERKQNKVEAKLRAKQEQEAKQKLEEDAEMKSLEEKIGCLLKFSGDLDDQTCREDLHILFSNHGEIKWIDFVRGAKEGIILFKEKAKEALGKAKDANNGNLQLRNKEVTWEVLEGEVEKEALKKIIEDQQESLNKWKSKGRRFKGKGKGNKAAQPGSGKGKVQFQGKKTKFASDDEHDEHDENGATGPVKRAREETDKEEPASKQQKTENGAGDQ

T1 sequence (P05455 whole entry): as above

Row | binding result [1] | binding result [2] | Binder
1 | binds | binds | murine 312B-IgG4 (scFv of the mature 312B VH and VL fused to human IgG4 Fc) (Fc fusion, mouse, flexible linker of three G4S motifs; VH-VL orientation; N-terminal murine Ig kappa leader for secretion; also called mature ab; source: permanent 3T3 production cell line, purified from cell culture supernatant (protein A); not shown: Fc (human IgG4, CH2 and CH3), C-terminal, kept) VH: QVKLQESGAELMKPGSSVKFSCKAAGYTFTDYWIEWLKQRPGHGLEWIGEILPGSVSIKYNEKFKGKATFTADTSSNTAYMQLSSLTSEDSAVYYCARSRSIYDGYFYYWGQGTTLTVSS VL: DIVMTQSTASLSASVGETVTITCRASENIYTYLAWYQQKQGKSPQLLVYNAKTLAEGVPSRFSGSGSGTQFSLRINSLQPEDFGSYYCQHHYGTPYTFGGGTKLEIK
2 | binds | binds | mutated germline 312B-IgG4 with an aspartate to tyrosine mutation in the CDR3 region of the VH domain (Fc fusion, mouse, as the germline VH of m6 with the aspartate in CDR3 replaced by tyrosine; flexible linker of three G4S motifs; as the germline VL of m6; VH-VL orientation; N-terminal murine Ig kappa leader for secretion; also called gl312B-D > Y; source: permanent 3T3 production cell line, purified from cell culture supernatant (protein A); not shown: Fc (human IgG4, CH2 and CH3), C-terminal, kept) VH: QVQLQQSGAELMKPGASVKLSCKATGYTFTGYWIEWVKQRPGHGLEWIGEILPGSGSTNYNEKFKGKATFTADTSSNTAYMQLSSLTTEDSAIYYCARSRSIYDGYFYYWGQGTTLTVSS VL: DIQMTQSPASLSASVGETVTITCRASENIYSYLAWYQQKQGKSPQLLVYNAKTLAEGVPSRFSGSGSGTQFSLKINSLQPEDFGSYYCQHHYGTPYTFGGGTKLEIK
